Key:
[1] = system: T1, human LTBP4 TP2E fragment (amino acids 357-586)
T1 sequence: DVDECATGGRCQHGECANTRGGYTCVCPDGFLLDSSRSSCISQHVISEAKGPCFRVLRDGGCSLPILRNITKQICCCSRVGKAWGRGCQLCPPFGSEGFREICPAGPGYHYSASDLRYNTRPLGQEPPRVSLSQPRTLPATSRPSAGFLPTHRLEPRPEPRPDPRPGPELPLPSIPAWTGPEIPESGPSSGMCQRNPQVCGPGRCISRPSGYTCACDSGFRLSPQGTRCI

[2] = target: murine LTBP4 TP2E fragment (UniProt Q8K4G1)
[3] = target: T2, Murine LTBP4 with the 12-amino-acid insertion (expressed fragment, FIG. 5) (UniProt Q8K4G1)
T2 sequence: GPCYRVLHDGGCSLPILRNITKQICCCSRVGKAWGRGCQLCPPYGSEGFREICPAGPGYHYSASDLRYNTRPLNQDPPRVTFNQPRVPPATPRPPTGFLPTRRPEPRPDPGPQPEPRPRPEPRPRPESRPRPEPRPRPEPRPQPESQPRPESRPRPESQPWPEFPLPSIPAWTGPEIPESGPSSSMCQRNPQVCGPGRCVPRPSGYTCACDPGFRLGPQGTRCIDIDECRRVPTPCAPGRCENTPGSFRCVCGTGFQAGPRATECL

[4] = system: T3, human LTBP4 proline-rich region fragment (FIG. 5)
T3 sequence: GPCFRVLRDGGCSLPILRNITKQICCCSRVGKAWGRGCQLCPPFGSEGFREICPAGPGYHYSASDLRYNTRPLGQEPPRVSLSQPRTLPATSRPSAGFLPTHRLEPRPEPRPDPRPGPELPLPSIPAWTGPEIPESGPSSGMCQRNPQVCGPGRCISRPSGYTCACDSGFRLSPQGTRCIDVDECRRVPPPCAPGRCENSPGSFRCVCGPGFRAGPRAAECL

[5] = system: human latent TGFβ binding protein 4 (LTBP4), full-length
[6] = target: murine LTBP4 deleted for the 12 amino acids (expressed fragment, FIG. 5) (UniProt Q8K4G1)

plasmin, sequence (P00747 20-580): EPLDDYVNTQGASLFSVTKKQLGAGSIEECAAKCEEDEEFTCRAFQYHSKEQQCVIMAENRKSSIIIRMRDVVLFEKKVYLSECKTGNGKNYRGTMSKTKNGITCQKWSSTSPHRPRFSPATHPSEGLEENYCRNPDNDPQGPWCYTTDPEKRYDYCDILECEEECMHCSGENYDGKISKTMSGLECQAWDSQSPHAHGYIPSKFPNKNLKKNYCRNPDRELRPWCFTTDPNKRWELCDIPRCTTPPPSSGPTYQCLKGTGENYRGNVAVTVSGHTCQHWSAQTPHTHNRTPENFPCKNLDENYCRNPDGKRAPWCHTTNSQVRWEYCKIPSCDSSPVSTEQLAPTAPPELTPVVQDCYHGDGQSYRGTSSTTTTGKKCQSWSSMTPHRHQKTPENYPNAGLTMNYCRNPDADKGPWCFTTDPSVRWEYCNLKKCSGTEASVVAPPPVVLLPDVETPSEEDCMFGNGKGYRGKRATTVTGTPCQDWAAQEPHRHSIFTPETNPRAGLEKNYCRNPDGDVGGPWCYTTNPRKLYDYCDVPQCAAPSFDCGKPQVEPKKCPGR
plasmin, sequence (P00747 581-810): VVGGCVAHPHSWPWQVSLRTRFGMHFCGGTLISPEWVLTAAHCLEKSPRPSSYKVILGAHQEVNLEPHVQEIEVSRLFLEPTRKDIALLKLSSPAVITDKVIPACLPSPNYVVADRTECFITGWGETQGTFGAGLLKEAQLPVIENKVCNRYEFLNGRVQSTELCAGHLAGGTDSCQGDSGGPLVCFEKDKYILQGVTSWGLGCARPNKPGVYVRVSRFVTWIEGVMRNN
human latent TGFβ binding protein 4 (LTBP4), full-length, sequence (chain, as listed by the source): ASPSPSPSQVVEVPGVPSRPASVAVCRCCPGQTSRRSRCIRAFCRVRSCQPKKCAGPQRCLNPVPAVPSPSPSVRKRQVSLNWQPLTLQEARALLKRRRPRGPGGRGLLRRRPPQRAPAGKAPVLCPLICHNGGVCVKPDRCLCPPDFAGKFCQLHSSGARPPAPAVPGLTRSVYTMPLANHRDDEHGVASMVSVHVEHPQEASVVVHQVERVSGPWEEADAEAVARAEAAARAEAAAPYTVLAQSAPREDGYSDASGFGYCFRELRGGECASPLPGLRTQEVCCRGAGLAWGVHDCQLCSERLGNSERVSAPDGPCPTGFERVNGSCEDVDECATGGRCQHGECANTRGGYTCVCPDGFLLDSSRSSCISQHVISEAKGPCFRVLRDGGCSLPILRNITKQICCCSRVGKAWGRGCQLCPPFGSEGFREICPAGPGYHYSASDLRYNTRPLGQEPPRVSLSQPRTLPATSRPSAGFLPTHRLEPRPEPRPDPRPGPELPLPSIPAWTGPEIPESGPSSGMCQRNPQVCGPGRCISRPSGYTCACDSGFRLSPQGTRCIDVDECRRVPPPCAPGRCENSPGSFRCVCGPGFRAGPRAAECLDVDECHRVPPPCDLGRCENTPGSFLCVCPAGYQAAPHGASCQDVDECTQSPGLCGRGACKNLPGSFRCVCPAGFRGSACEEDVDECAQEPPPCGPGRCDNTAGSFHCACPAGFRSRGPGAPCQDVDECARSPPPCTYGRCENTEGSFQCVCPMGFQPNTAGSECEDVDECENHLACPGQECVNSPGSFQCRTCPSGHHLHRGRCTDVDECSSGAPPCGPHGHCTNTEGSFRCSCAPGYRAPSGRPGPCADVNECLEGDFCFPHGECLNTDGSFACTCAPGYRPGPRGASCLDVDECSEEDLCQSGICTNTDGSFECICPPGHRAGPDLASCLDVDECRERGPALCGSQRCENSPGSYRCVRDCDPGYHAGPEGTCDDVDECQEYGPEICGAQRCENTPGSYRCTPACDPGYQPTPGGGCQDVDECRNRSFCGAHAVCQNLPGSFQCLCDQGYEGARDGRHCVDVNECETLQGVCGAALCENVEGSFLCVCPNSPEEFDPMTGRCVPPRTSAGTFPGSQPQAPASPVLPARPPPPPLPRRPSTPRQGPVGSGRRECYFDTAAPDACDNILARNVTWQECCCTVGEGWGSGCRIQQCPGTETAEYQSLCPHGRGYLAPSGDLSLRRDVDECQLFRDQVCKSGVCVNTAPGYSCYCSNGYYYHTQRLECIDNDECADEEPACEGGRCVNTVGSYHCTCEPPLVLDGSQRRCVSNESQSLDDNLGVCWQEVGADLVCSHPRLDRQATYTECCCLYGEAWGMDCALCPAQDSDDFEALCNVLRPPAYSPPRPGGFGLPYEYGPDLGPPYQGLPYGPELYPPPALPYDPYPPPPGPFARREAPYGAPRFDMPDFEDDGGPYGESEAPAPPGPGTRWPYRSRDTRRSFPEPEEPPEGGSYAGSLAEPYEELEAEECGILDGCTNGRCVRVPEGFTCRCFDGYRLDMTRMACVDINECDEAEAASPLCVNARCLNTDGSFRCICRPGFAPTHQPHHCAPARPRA

Row | Substance | proteolytic digestion of 35S-labeled fragment (dose-response and time course) [1] | proteolytic digestion of 35S-labeled fragment (dose-response and time course) [2] | proteolysis of expressed labeled fragment by plasmin [3] | proteolysis of expressed labeled fragment by plasmin [4] | plasmin proteolysis of full-length LTBP4 [5] | proteolysis of expressed labeled fragment by plasmin [6]
1 | elastase | the human TP2E fragment is more readily cleaved than the mouse LTBP4 sequence | the human TP2E fragment is more readily cleaved than the mouse LTBP4 sequence | – | – | – | –
2 | plasmin | the human TP2E fragment is more readily cleaved than the mouse LTBP4 sequence | the human TP2E fragment is more readily cleaved than the mouse LTBP4 sequence | Murine LTBP4 with the 12-amino-acid insertion was largely resistant to proteolysis | The human LTBP4 was most readily degraded | Full-length LTBP4 protein, produced from cultured cells, is also susceptible to plasmin proteolysis | the murine LTBP4 deleted for the 12 amino acids was readily degraded
